Here are results for five substances from patent publication US20260275324A1, “UNNATURAL AMINO ACID IN CELLULO SYNTHESIS FOR SITE-SPECIFIC PROTEIN MODIFICATION” (The Chinese University of Hong Kong, priority 2023, published 2026).

Assay [1] concerns the target GST-CDK4 (Sino Biological) (UniProt P11802). Kind of assay: microscale thermophoresis (MST); Alexa Fluor 647-labelled MBP-cycP16p at 70 nM, GST-CDK4 titrated from 1.92 µM.
For assay [2] the target is unchanged. Kind of assay: microscale thermophoresis (MST), against linear MBP-P16p as reference. (Microscale thermophoresis detects binding through changes in fluorescence in a small temperature gradient.)
Assay [3] addresses CDK4 of MCF-7 cells (endogenous) (UniProt P11802). Kind of assay: cell-based or functional assay.
A further assay addresses α-synuclein (Homo sapiens, UniProt P37840). The conditions noted are these: in vitro and in vivo, Liang et al. 2021; cited from earlier work.

Chain of GST-CDK4 (Sino Biological) (P11802 whole entry): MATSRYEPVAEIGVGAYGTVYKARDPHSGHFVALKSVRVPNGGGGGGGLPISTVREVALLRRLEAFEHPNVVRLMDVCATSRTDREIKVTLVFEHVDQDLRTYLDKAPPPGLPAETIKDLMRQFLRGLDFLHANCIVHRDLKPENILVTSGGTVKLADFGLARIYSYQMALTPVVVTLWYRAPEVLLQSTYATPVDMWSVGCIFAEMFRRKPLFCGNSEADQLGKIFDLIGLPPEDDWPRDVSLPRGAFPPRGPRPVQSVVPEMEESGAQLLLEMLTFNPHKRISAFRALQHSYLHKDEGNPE
Chain of cycRGD-mCh-cycP16p (bifunctional bicyclic protein) (P42771 83-103): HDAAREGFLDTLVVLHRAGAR

In general, Kd refers to the equilibrium constant for the complex coming apart. Higher therefore signals weaker binding. Regarding “MBP-cycP16p (cyclized MBP-P16p protein) (from UniProt P0AEX9 27-392; P42771 83-103)”, the Kd in assay [1] amounted to 27.7 nM. Moreover, in assay [2], the fold higher binding affinity compared to its linear counterpart MBP-P16p was found to be 4 fold.

In assay [3], “R9-P16p (linear P16p fused to the poly-arginine cell penetrating sequence; Pepmic) (from UniProt P42771 84-103) (peptide)” yielded a percent of MCF-7 cells arrested at G0/G1 phase (flow cytometry, 15 µM, 24 h) of 60.7%.

“SUMOmini2: earlier linear version of SUMO1 peptide (15-55), Liang et al.”: the “inhibition of α-synuclein aggregation” value with α-synuclein was “effectively inhibit α-synuclein aggregation in vitro and in vivo”.

“cycRGD-mCh-P16p (cycRGD-mCherry bearing linear uncyclized P16p) (from UniProt P42771 83-103)” had a percent of MCF-7 cells arrested at G0/G1 phase (flow cytometry, 15 µM, 24 h) in assay [3] of 46.7%.

In assay [3], “cycRGD-mCh-cycP16p (bifunctional bicyclic protein) (from UniProt P42771 83-103)” came in with a percent of MCF-7 cells arrested at G0/G1 at 72 h (time course) of 88% and a percent of MCF-7 cells arrested at G0/G1 phase (flow cytometry, 15 µM, 24 h) of 76.7%.
